Entries after “also recorded” stand apart in the source; their conditions may differ.
Columns and labels:
Human Sputum Elastase = biological target: T1, Human Sputum Elastase (Homo sapiens, UniProt P08246); experiment: Elastase assay (spectrophotometric, p-nitroanilide substrate); type: biochemical; settings: for Inhibitory Activity Elastase: inhibitor/protease ratio between about 10/1 and 50/1; for inhibition of human elastase (in words): text discussion of Table III
T1 construct: Human Sputum Elastase, product No. SE-563 EPC, Inc., Pacific, Mo; USA, Lot 85701; purchased EPC, Inc., Pacific, Mo; USA SE-563; host or cells: human sputum
T1 sequence (P08246 30-267): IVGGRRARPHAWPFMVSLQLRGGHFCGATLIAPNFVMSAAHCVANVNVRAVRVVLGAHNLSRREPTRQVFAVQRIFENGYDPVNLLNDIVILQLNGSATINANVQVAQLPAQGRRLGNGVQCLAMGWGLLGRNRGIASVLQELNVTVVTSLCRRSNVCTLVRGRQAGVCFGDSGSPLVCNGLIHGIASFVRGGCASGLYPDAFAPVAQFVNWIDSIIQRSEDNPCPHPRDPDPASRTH
Description: (§1) The inhibitory activity of the polypeptides of the present invention can be easily assayed using in vitro assays. In these types of spectrophotometric assays the activity of the serine protease is measured toward an appropriate p-nitroanilide substrate in the presence and absence of the peptide inhibitor. The enzyme catalyzed hydrolysis of the peptide p-nitroanilide substrate produces p-nitroanaline which results in an increase in absorbance which is monitored in the range of 405 to 410 nm. The rate of increase in absorbance is a measure of the enzymatic activity and the decrease in this rate relative to a suitable control is used to ascertain inhibition. The general assay procedure and details of the particular assays employed in the examples are provided in the Appendix following the examples. It is also possible to test the polypeptides in a functionally oriented assay that emulates in vivo conditions. Such an inhibition assay for elastase is also described in the Appendix.
(§2) Generalized Protocol Spectrophotometric Assays:
(§3) (1) Pipette 100 μl of enzyme solution into a disposable polystyrene cuvette (1 cm optical path length).
(§4) (2) Add (1900-X) μl of bufferto the cuvette, where X is the volume of test solution in microliters that is added in the next step.
(§5) Add X μl of test solution to the cuvette, where X ranges from 0 μl for the control to a maximum of about 500 μl. Incubate the solution for a period of 1 to 5 minutes at ambient temperature.
(§6) (4) Add 100 μl of substrate solution to the cuvette. Mix the contents by covering the cuvette with a piece of paraffin film and repeatedly inverting for a period of 5 to 15 seconds.
(§7) (5) Record the change in absorbance for about 5 minutes at either 405 or 410 nm, depending on the assay, with a spectrophotometer equipped with a suitable recording device.
(§8) The percent inhibition is calculated from the formula [formula] where (ΔA/min) is the initial rate of absorbance change.
(§9) (7) For more accurate quantitative determinations temperature control of the cuvette holders and the reagent solutions can be instituted.
(§10) (8) The test solution can be crude oxidized peptide prepared as described above, fractions from a chromatographic separation or purified polypeptides.
(A) Buffer Solution - Tris-NaCl buffer consisting of 0.1M Tris-HCl pH 7.5 at 25° C. containing 0.5M NaCl and 0.01% (w/v) NaNs.
(B) Substrate Solution - Dissolve 45.5 mg of N-succinyl-L-alanyl-L-alanyl-L-alanine p-nitroanilide in 1 ml of 1-methyl-2-pyrrolidinone. Add 32 ml of Tris-NaCl buffer.
(C) Enzyme Solution - Human Sputum Elastase, product No. SE-563 EPC, Inc., Pacific, Mo. USA, Lot 85701. Dissolve 1 mg in 1 ml of Tris-NaCl buffer. Store on ice or at 4° C.
(§11) (D) Test Solution - See general protocol, number 8.
(§12) Procedure: Use the above solutions in the general protocol described above.
(1) Buffer Solution - Tris-NaCl buffer -see Method 1.
(2) Substrate Solution - Dissolve 50 mg of 3-carbomethoxypropionyl-L-alanyl-L-alanyl-L-[…]-L-valine p-nitroanilidein 1 ml of 1-methyl-2-pyrrolidinone. Add 32 ml of Tris-NaCl buffer.
(3) Enzyme Solution - Human sputum elastase, product No. SE-563, EPC, inc. Pacific, Mo. USA, Lot 85071. Prepare a sample at a concentration of 0.01 mg per ml of Tris-NaCl buffer. Store on ice.
(4) Test Solution - general protocol, number 8.
Procedure: Use the above solutions in the general protocol.
(1) Porcine pancreatic elastase may be substituted for human elastase when it is desired to test for an inhibitor of the former.
(2) The activity of an elastase preparation can be calculated as [formula]
(3) The Tris-NaCl buffer also can be pH 8.0 with 0.03% sodium azide. Results should be compared at a single pH.

bovine trypsin [1] = biological target: T2, bovine trypsin (Bos taurus, UniProt P00760); experiment: Trypsin assay (spectrophotometric, N-Benzoyl-L-arginine p-nitroanilide substrate); type: biochemical; settings: inhibitor/protease ratio between about 10/1 and 50/1
T2 sequence (P00760 24-246): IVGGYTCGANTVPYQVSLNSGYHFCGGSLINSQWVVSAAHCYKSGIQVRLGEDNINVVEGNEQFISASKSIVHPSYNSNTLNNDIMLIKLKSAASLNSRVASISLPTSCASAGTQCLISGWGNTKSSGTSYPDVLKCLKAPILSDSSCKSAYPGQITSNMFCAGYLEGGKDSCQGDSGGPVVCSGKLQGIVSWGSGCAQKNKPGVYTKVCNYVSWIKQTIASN
Description: as §1, §2, §3, §4, §5, §6, §7, §8, §9, §10
(A) Buffer Solution - Triethanolamine buffer consisting of 200 mM triethanolamine, 20 mM CaCl2, pH 7.8
(B) Substrate solution - Dissolve 50 mg of N-Benzoyl-L-arginine p-nitroanilide in 50 ml of water. Sonicate for 5 to 10 minutes to completely dissolve the solid material.
(C) Enzyme solution - Dissolve 1 mg of bovine trypsin in 10 ml of 0.001N HCl stored on ice during the assay.
as §11, §12

Human Sputum Cathepsin G [2] = biological target: T3, Human Sputum Cathepsin G (Homo sapiens, UniProt P08311); experiment: Cathepsin G assay (spectrophotometric, p-nitroanilide substrate); type: biochemical; settings: inhibitor/protease ratio between about 10/1 and 50/1
T3 construct: Human Sputum Cathepsin G (Product No. SG-45, EPC, Inc., Pacific, Mo.); purchased EPC, Inc., Pacific, Mo; SG-45; host or cells: human sputum
T3 sequence (P08311 21-255): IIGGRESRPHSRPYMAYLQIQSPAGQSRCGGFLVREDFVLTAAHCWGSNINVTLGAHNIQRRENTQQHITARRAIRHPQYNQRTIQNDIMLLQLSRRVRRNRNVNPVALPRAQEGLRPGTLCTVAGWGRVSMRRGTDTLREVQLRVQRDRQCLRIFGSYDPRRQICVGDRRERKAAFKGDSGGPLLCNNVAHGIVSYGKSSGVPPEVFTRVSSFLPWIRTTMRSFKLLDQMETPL
Description: as §1, §2, §3, §4, §5, §6, §7, §8, §9, §10
(A) Buffer Solution - Tris-NaCl buffer consisting of 0.1M Tris-HCl, pH 8.0 containing 0.5M NaCl and 0.03% sodium azide.
(B) Substrate solution - Dissolve 50 mg of N-succinyl-L-alanyl-L-alanyl-L-prolyl-L-phenylalanine p-nitroanilide in 1 ml of 1-methyl-2-pyrrolidinone and dilute to 50 ml with Tris-NaCl buffer.
(C) Enzyme Solution - Human Sputum Cathepsin G (Product No. SG-45, EPC, Inc., Pacific, Mo.). Dissolve 1 mg of protein per 1 ml of Tris-NaCl buffer. Store on ice or at 4° C.
(D) Test Solutions - See the general protocol, number 8.
Procedure: Use the above solution in the general protocol described above. […]

bovine chymotrypsin [3] = biological target: T4, bovine chymotrypsin (Bos taurus, UniProt P00766); experiment: Chymotrypsin assay (spectrophotometric, p-nitroanilide substrate); type: biochemical; settings: inhibitor/protease ratio between about 10/1 and 50/1
Description: as §1, §2, §3, §4, §5, §6, §7, §8, §9, §10
(A) Buffer solution - triethanolamine buffer- See trypsin assay.
(B) Substrate Solution - Dissolve 25 mg of 3-carbomethoxypropionyl-L-arginyl-L-prolyl-L-tyrosine p-nitroanilide (Product No. S-2586, KabiVitrum AB, Stockholm, Sweden) in 23.6 ml of water
(C) Enzyme solution - Dissolve 1 mg of bovine chymotrypsin in 4 ml of 0.001N HCl. Prepare the final dilution by combining 0.1 ml of the stock chymotrypsin solution and 10 ml of 0.001N HCl. Store on ice or at 4° C.
Procedure: Use the above solutions in the general protocol
(2) See note 1 of the cathepsin G assay.
(3) 0.1M Tris-HCl, pH 7.8, 20 mM CaCl2, 0.05% triton X-100 can be substituted for the triethanolamine buffer.

bovine chymotrypsin [4] = biological target: T4, bovine chymotrypsin; settings: stated for comparison, no test described; cited from earlier work
bovine trypsin [5] = biological target: T2, bovine trypsin; settings: stated for comparison, no test described; cited from earlier work
Human Sputum Cathepsin G [6] = biological target: T3, Human Sputum Cathepsin G; settings: stated for comparison, no test described; cited from earlier work

## RVCPVALMKCKKDSDCLAECVCLEHGYCG (RVCPVALMKCKKDSDCLAECVCLEHGYCG) [Peptide 48]
Human Sputum Elastase
  Inhibitory Activity Elastase: + (Represents between 10% and 50% inhibition)
  inhibition of human elastase (in words): continue to be inhibitors of human elastase
Bovine trypsin [1]
  Inhibitory Activity Trypsin: - (Represents less than 10% inhibition)
Human Sputum Cathepsin G [2]
  Inhibitory Activity Cathepsin G: - (Represents less than 10% inhibition)
Bovine chymotrypsin [3]
  Inhibitory Activity Chymotrypsin: - (Represents less than 10% inhibition)

## RVCPVILLKCKKDSDCLAECVCLEHGYCG (RVCPVILLKCKKDSDCLAECVCLEHGYCG) [Peptide 45]
Human Sputum Elastase
  Inhibitory Activity Elastase: ++ (Represents greater than 50% inhibition)
  inhibition of human elastase (in words): continue to be inhibitors of human elastase
Bovine trypsin [1]
  Inhibitory Activity Trypsin: - (Represents less than 10% inhibition)
Human Sputum Cathepsin G [2]
  Inhibitory Activity Cathepsin G: - (Represents less than 10% inhibition)
Bovine chymotrypsin [3]
  Inhibitory Activity Chymotrypsin: - (Represents less than 10% inhibition)

## R V C P V I L Nle KCKKDSDCLAECVCLEHGYCG [Peptide 43]
Human Sputum Elastase
  Inhibitory Activity Elastase: ++ (Represents greater than 50% inhibition)
Bovine trypsin [1]
  Inhibitory Activity Trypsin: - (Represents less than 10% inhibition)
Human Sputum Cathepsin G [2]
  Inhibitory Activity Cathepsin G: - (Represents less than 10% inhibition)
Bovine chymotrypsin [3]
  Inhibitory Activity Chymotrypsin: - (Represents less than 10% inhibition)

## RVCPVSLMKCKKDSDCLAECVCLEHGYCG (RVCPVSLMKCKKDSDCLAECVCLEHGYCG) [Peptide 44]
Human Sputum Elastase
  Inhibitory Activity Elastase: ++ (Represents greater than 50% inhibition)
Bovine trypsin [1]
  Inhibitory Activity Trypsin: - (Represents less than 10% inhibition)
Human Sputum Cathepsin G [2]
  Inhibitory Activity Cathepsin G: - (Represents less than 10% inhibition)
Bovine chymotrypsin [3]
  Inhibitory Activity Chymotrypsin: - (Represents less than 10% inhibition)

## RVPCVALMKCKKDSDCLAECVCLEHGYCG (RVPCVALMKCKKDSDCLAECVCLEHGYCG) [Peptide 49]
Human Sputum Elastase
  Inhibitory Activity Elastase: + (Represents between 10% and 50% inhibition)
  inhibition of human elastase (in words): continue to be inhibitors of human elastase; also recorded: only marginal activity
Bovine trypsin [1]
  Inhibitory Activity Trypsin: - (Represents less than 10% inhibition)
Human Sputum Cathepsin G [2]
  Inhibitory Activity Cathepsin G: - (Represents less than 10% inhibition)
Bovine chymotrypsin [3]
  Inhibitory Activity Chymotrypsin: - (Represents less than 10% inhibition)

## RVPCVILMKLKKDSDCLAECVCLEHGYCG (RVPCVILMKLKKDSDCLAECVCLEHGYCG) [Peptide 50]
Human Sputum Elastase
  Inhibitory Activity Elastase: - (Represents less than 10% inhibition)
  inhibition of human elastase (in words): only marginal activity
Bovine trypsin [1]
  Inhibitory Activity Trypsin: - (Represents less than 10% inhibition)
Human Sputum Cathepsin G [2]
  Inhibitory Activity Cathepsin G: - (Represents less than 10% inhibition)
Bovine chymotrypsin [3]
  Inhibitory Activity Chymotrypsin: - (Represents less than 10% inhibition)

## α-1-Proteinase inhibitor
Bovine chymotrypsin [4]
  inhibition of chymotrypsin (in words): inhibits all of these enzymes
Bovine trypsin [5]
  inhibition of trypsin (in words): inhibits all of these enzymes
Human Sputum Cathepsin G [6]
  inhibition of cathepsin G (in words): inhibits all of these enzymes
